In PMC4474532:

B1: human PERK luminal domain (residues 105–403) [human] / itself (parent)
chain: LVIISTLDGRIAALDPENHGKKQWDLDVGSGSLVSSSLSKPEVFGNKMIIPSLDGALFQWDQDRESMETVPFTVESLLESSYKFGDDVVLVGGKSLTTYGLSAYSGKVRYICSALGCRQWDSDEMEQEEDILLLQRTQKTVRAVGPRSGNEKWNFSVGHFELRYIPDMETRAGFIESTFKPNENTEESKIISDVEEQEAAIMDIVIKVSVADWKVMAFSKKGGHLEWEYQFCTPIASAWLLKDGKVIPISLFDDTSYTSNDDVLEDEEDIVEAARGATENSVYLGMYRGQLYLQSSVRI

Variants of: B1
Test: sedimentation velocity AUC
Conditions: with itself

Work on LVIISTLDGRIAALDPENHGKKQWDLDVGSGSLVSSSLSKPEVFGNKMIIPSLDGALFQWDQDRESMETVPFTVESLLESSYKFGDDVVLVGGKSLTTYGLSAYSGKVRYICSALGCRQWDSDEMEQEEDILLLQRTQKTVRAVGPRSGNEKWNFSVGHFELRYIPDMETRAGFIESTFKPNENTEESKIISDVEEQEAAIMDIVIKVSVADWKVMAFSKKGGHLEWEYQFCTPIASAWLLKDGKVIPISLFDDTSYTSNDDVLEDEEDIVEAARGATENSVYNGMYRGQLYLQSSVRI [chain 1 L284N] yielded a screen value (parent: 0) of -58% and a screen value (parent: 0.73) of 0.31.

LVIISTLDGRIAALDPENHGKKQWDLDVGSGSLVSSSLSKPEVFGNKMIIPSLDGALFQWDQDRESMETVPFTVESLLESSYKFGDDVVLVGGKSLTTYGLSAYSGKVRYICSALGCRQWDSDEMEQEEDILLLQRTQKTVRAVGPRSGNEKWNFSVGHFELRYIPDMETRAGFIESTFKPNENTEESKIISDVEEQEAAIMDIVIKVSVADWKVMAFSKKGGHLEWEYQFCTPIASAWLLKDGKVIPISLFDDTSYTSNDDVLEDEEDIVEANRGATENSVYLGMYRGQLYLQSSVRI [chain 1 A274N] gave a screen value (parent: 0) of -52% and a screen value (parent: 0.73) of 0.35.

Work on LVIISTLDGRIAALDPENHGKKQWDLDVGSGSLVSSSLSKPEVFGNKMIIPSLDGALFQWDQDRESMETVPFTVESLLESSYKFGDDVVLVGGKSLTTYGLSAYSGKVRYICSALGCRQWDSDEMEQEEDILLLQRTQKTVRAVGPRSGNEKWNFSVGHFELRYIPDMETRAGFIESTFKPNENTEESKIISDVEEQEAAIMDIVIKVSVADWKVMAFSKKGGHLEWEYQFCTPIASAWLLKDGKVIPISLFDDTSYTSNDDVLEDEEDIVEAARGATENSVYLGMYRGQLYNQSSVRI [chain 1 L293N] yielded a screen value (parent: 0) of -61% and a screen value (parent: 0.73) of 0.28.

Variant LVIISTLDGRIAALDPENHGKKQWDLDVGSGSLVSSSLSKPEVFGNKMIIPSLDGALFQWDQDRESMETVPFTVESLLESSYKFGDDVVLVGGKSLTTYGLSAYSGKVRYICSALGCRQWDSDEMEQEEDILLLQRTQKTVRAVGPRSGNEKWNFSVGHFELRYIPDMETRAGFIESTFKPNENTEESKIISDVEEQEAAIMDIVIKVSVADWKVMAFSKKGGHLEWEYQFCTPIASAWLLKDGKVIPISLFDDTSYTSNDDVLEDEEDIVEAARGATENSVYLGMYRGQNYLQSSVRI [chain 1 L291N] has a screen value (parent: 0) of -57% and a screen value (parent: 0.73) of 0.32.
